Assay results as given in US9944718B2, “ADAM22 for use as a prognostic variable, and target for therapy, of a metastatic breast cancer disease” (Royal College of Surgeons in Ireland, priority 2011, dated 2018).
Peptide text beside a SMILES is read from it.

How the values were obtained:
[1] = Toxicity study of LGI1 peptide mimetic in vivo; conditions: preliminary in vivo studies; FIG. 1F
Protocol: LGI1 mimetic was delivered by daily intraperitoneal injection to C57/bl6 mice at high (100 ug/kg/day), medium (10 ug/kg/day) and low dose (1 ug/kg/day) for 30 days.

[2] = test system: endocrine resistant LY2 cells; assay: Motility assay, LY2 cells; type: cell-based; conditions: 5 nM, FIG. 1C/1E
Text: (§1) • For cell culture use Minimum Essential Medium-Eagle (EMEM; BioWhittaker, Product No. 12-611Q) containing the following supplements (=EMEM Complete Medium): 10% fetal calf serum (BioWhittaker, Product No. 14-503F), 1X penicillin/streptomycin solution (BioWhittaker, Product No. 17-602E), 1% L-glutamine (BioWhittaker, Product No. 17-605E), 1% non-essential amino acids (BioWhittaker, Product No. 13-114E) and 1% sodium pyruvate (BioWhittaker, Product No. 13-115E). • Split cells when they reach 60-80% confluency (every 2-3 days), diluting 1:5 to 1:10. • For cell motility, harvest cells with trypsin-versene mixture (BioWhittaker, Product No. 17-161F) and dilute into EMEM Complete Medium (warmed to 37° C.). For cells cultured in a T-75 flask, wash cells with 3 ml of trypsin. Add another 3 ml of trypsin and aspirate 2 ml. Allow cells to detach by incubating flask at 37° C. for 5 minutes and then add 9 ml of EMEM Complete Medium and centrifuge cells at 400×g for 5 minutes at room temperature. • Wash 3× with Serum-Free Culture Medium (warmed to 37° C.) (see Procedure section). • Adjust cell density to 10^4 cells/ml in EMEM serum-free medium and add 50 μl of the cell suspension to each well of a 96-well microplate (=500 cells/well). Cell motility is stimulated with 50 μl of 10% fetal bovine serum (FBS) diluted in EMEM serum-free medium. […]

[3] = test system: endocrine resistant LetR cells; assay: Motility assay, LetR cells; type: cell-based; conditions: 5 nM, FIG. 1C/1E
Text: as §1

MCF7 cells = assay: Motility assay, MCF7 cells; type: cell-based; conditions: 5 nM, FIG. 1C
Text: as §1

LetR cells = assay: Cellular differentiation in 3D culture, LetR cells; type: cell-based; conditions: LetR cells treated with LGI1; n=3; FIG. 1D
[4] = test system: endocrine resistant LetR cells; assay: Xenograft model of endocrine resistance; type: in vivo; conditions: FIG. 1G
Text: As ADAM22 expression has previously only been described in the central nervous system, a therapeutic directed against systemic ADAM22 has the potential to be highly specific for the breast and have low toxicity. The neuronal protein, LGI1 serves as a specific extracellular ligand for ADAM22^4. […] The Applicant has shown that treatment with recombinant LGI1 reduced cellular migration and restored differentiation in endocrine resistant cells in a similar manner to that observed with knockdown of ADAM22 (FIGS. 1C and D). A 22 amino acid peptide mimetic of LGI1 with a simple hairpin structure against the active binding domain of ADAM22 has been developed. […] In vivo studies have been undertaken to assess the efficacy of the LGI1 mimetic in reducing breast cancer burden in endocrine resistant breast cancer. […] This has significant advantage over previous methods described of detecting metastatic disease^9.

[5] = LetR cells in vivo, daily injection

Row | Molecule | tolerability / toxicity [1] | cellular migration [2] | cellular migration [3] | cellular migration (MCF7 cells) | cellular differentiation (LetR cells) | cell proliferation in vivo [4, 5] | metastasis in vivo [4, 5] | tumour burden ([4]; xenograft model of endocrine resistance)
1 | CC[C@H](C)[C@H](NC(=O)[C@H](Cc1ccccc1)NC(=O)[C@H](CCCNC(=N)N)NC(=O)[C@@H](NC(=O)[C@H](CC(C)C)NC(=O)[C@H](CS)NC(=O)[C@@H](NC(=O)[C@H](Cc1ccc(O)cc1)NC(=O)[C@@H](NC(=O)[C@H](CC(=O)O)NC(=O)CNC(=O)[C@@H](N)CCCCN)C(C)C)[C@@H](C)CC)[C@@H](C)O)C(=O)NCC(=O)N[C@@H](CC(=O)O)C(=O)N[C@@H](CO)C(=O)N[C@@H](CCCCN)C(=O)N[C@H](C(=O)N[C@@H](CCSC)C(=O)N[C@@H](CCCCN)C(=O)N[C@@H](Cc1c[nH]c2ccccc12)C(=O)NCC(=O)NCC(=O)O)C(C)C [LGI1 mimetic] (H-KGDVYICLTRFIGDSKVMKWGG-OH) | well tolerated with no toxicity observed | – | – | – | – | – | – | –
2 | LGI1: neuronal protein and known ADAM22 ligand LGI1 (SEQ ID NO: 1), GENBANK AAQ89244 (protein, listed as Homo sapiens, (1)..(557) LGI1 protein) MESERSKRMGNACIPLKRIAYFLCLLSALLLTEGKKPAKPKCPAVCTCTKDNALCENARSIPRTVPPDVISLSFVRSGFTEISEGSFLFTPSLQLLLFTSNSFDVISDDAFIGLPHLEYLFIENNNIKSISRHTFRGLKSLIHLSLANNNLQTLPKDIFKGLDSLTNVDLRGNSFNCDCKLKWLVEWLGHTNATVEDIYCEGPPEYKKRKINSLSSKDFDCIITEFAKSQDLPYQSLSIDTFSYLNDEYVVIAQPFTGKCIFLEWDHVEKTFRNYDNITGTSTVVCKPIVIETQLYVIVAQLFGGSHIYKRDSFANKFIKIQDIEILKIRKPNDIETFKIENNWYFVVADSSKAGFTTIYKWNGNGFYSHQSLHAWYRDTDVEYLEIVRTPQTLRTPHLILSSSSQRPVIYQWNKATQLFTNQTDIPNMEDVYAVKHFSVKGDVYICLTRFIGDSKVMKWGGSSFQDIQRMPSRGSMVFQPLQINNYQYAILGSDYSFTQVYNWDAEKAKFVKFQELNVQAPRSFTHVSINKRNFLFASSFKGNTQIYKHVIVDLSA | – | significantly reduced cellular migration | significantly reduced cellular migration | no discernable effect | restored cellular differentiation | inhibits | inhibits | significantly reduced tumour burden
